Data as given in patent US20140287471A1, “VARIANT CBH I POLYPEPTIDES WITH REDUCED PRODUCT INHIBITION” (BP CORPORATION NORTN AMERICA INC., priority 2011, published 2014).
Each block holds one molecule with its values, some of them ahead of it.

What was measured:
Assay type in all cases: biochemical
[1] = 4-MUL assay with and without cellobiose (Example 1)
[2] = PASC assay, cellobiose dose-response (Example 1); settings: FIG. 3
Description: This assay measures the activity of CBH I using PASC as the substrate. During the assay, the concentration of PASC is monitored by a fluorescent signal derived from calcofluor binding to PASC (ex/em 365/440 nm). The assay is initiated by mixing enzyme (15 μl) and reaction buffer (85 μl of 0.2% PASC, 200 mM MES, pH 6), and then incubating at 35° C. while shaking at 225 RPM. After 2 hours, one reaction volume of calcofluor stop solution (100 μg/ml in 500 mM glycine pH 10) is added and fluorescence read-outs obtained (ex/em 365/440 nm).
(§1) Tolerance to cellobiose (or inhibition caused by cellobiose) was tested in two ways in the CBH I assays. A direct-dose tolerance method can be applied to all of the CBH I assays (i.e., 4-MUL, PASC, and/or bagasse assays), and entails the exogenous addition of a known amount of cellobiose into assay mixtures. A different indirect method entails the addition of an excess amount of β-glucosidase (BG) to PASC and bagasse assays (typically, 1 mg β-glucosidase/g solids loaded). BG will enzymatically hydrolyze the cellobiose generated during these assays; therefore, CBH I activity in the presence of BG can be taken as a measure of activity in the absence of cellobiose. Furthermore, when activity in the presence and absence of BG are similar, this indicates tolerance to cellobiose.

[3] = Saccharification assay (bagasse assay) with and without β-glucosidase (Example 1); settings: T. reesei CBH I variants; activity without β-glucosidase (BG) relative to with BG
Description: This assay measures the activity of CBH I on bagasse, a lignocellulosic substrate. Reactions were run in 10 ml vials with 5% dilute acid pretreated bagasse (250 mg solids per 5 ml reaction). Each reaction contained 4 mg CBH I enzyme/g solids, 200 mM MES pH 6, kanamycin, and chloramphenicol. Reactions were incubated at 35° C. in hybridization incubators (Robbins Scientific), rotating at 20 RPM. Time points were taken by transferring a sample of homogenous slurry (150 μl) into a 96-well deep well plate and quenching the reaction with stop buffer (450 μl of 500 mM sodium carbonate, pH 10). Time point measurements were taken every 24 hours for 72 hours.
as §1

- IC50 of cellobiose (PASC assay) [2]: 3000 µg/mL
B1: wild type T. reesei CBH I: wild type T. reesei CBH I (SEQ ID NO:2) (protein, listed as Trichoderma reesei)
chain: MYRKLAVISAFLATARAQSACTLQSETHPPLTWQKCSSGGTCTQQTGSVVIDANWRWTHATNSSTNCYDGNTWSSTLCPDNETCAKNCCLDGAAYASTYGVTTSGNSLSIGFVTQSAQKNVGARLYLMASDTTYQEFTLLGNEFSFDVDVSQLPCGLNGALYFVSMDADGGVSKYPTNTAGAKYGTGYCDSQCPRDLKFINGQANVEGWEPSSNNANTGIGGHGSCCSEMDIWEANSISEALTPHPCTTVGQEICEGDGCGGTYSDNRYGGTCDPDGCDWNPYRLGNTSFYGPGSSFTLDTTKKLTVVTQFETSGAINRYYVQNGVTFQQPNAELGSYSGNELNDDYCTAEEAEFGGSSFSDKGGLTQFKKATSGGMVLVMSLWDDYYANMLWLDSTYPTNETSSTPGAVRGSCSTSSGVPAQVESQSPNAKVTFSNIKFGPIGSTGNPSGGNPPGGNPPGTTTTRRPATTTGSSPGPTQSHYGQCGGIGYSGPTVCASGTTCQVLNPYYSQCL
- % activity remaining in 4-MUL assay in the presence of cellobiose ([1]; T. reesei CBH I and R268/R411 variants, 250 mg/L cellobiose): 23%
- cellobiose concentration at which inhibition starts (PASC assay) [2]: around 1 g/L

B2: R268A/R411K: T. reesei CBH I with R268A and R411K substitutions (protein, UniProt P62694 18-513, looked up, variant R268A R411K)
Exoglucanase 1: QSACTLQSETHPPLTWQKCSSGGTCTQQTGSVVIDANWRWTHATNSSTNCYDGNTWSSTLCPDNETCAKNCCLDGAAYASTYGVTTSGNSLSIGFVTQSAQKNVGARLYLMASDTTYQEFTLLGNEFSFDVDVSQLPCGLNGALYFVSMDADGGVSKYPTNTAGAKYGTGYCDSQCPRDLKFINGQANVEGWEPSSNNANTGIGGHGSCCSEMDIWEANSISEALTPHPCTTVGQEICEGDGCGGTYSDNAYGGTCDPDGCDWNPYRLGNTSFYGPGSSFTLDTTKKLTVVTQFETSGAINRYYVQNGVTFQQPNAELGSYSGNELNDDYCTAEEAEFGGSSFSDKGGLTQFKKATSGGMVLVMSLWDDYYANMLWLDSTYPTNETSSTPGAVKGSCSTSSGVPAQVESQSPNAKVTFSNIKFGPIGSTGNPSGGNPPGGNRGTTTTRRPATTTGSSPGPTQSHYGQCGGIGYSGPTVCASGTTCQVLNPYYSQCL
- Tolerance to cellobiose accumulation % Activity in Bagasse Assay (+/−BG) [3]: 94%
- Tolerance to 250 mg/L cellobiose % Activity in 4-MUL Assay (+/−Cellobiose) ([1]; T. reesei CBH I variants, activity with 250 mg/L cellobiose relative to without cellobiose): 97%
